# From patent US20210269480A1 (published 2021)
# *1 amine or outer side, *2 acyl side, *3 side chain or, on linkers, in order; H or OH if unused. Bridges are numbered along the chain shown (N, C = ends). Primed or numbered codes have the meaning given here. Where no end group is shown, it is not given here. [ ]: non-standard residue; d: D form. TATA = O=C(CC[*:1])N1CN(C(=O)CC[*:2])CN(C(=O)CC[*:3])C1; 1Nal = N[C@@H](Cc1cccc2ccccc12)C(=O)O; Glutaryl = O=C(CCCC(=O)[*:2])[*:1]; K(Fl) = lysine bearing fluorescein; Cya = N[C@@H](CS(=O)(=O)O)C(=O)O; Hyp = O=C(O)[C@@H]1C[C@@H](O)CN1; dCya = N[C@H](CS(=O)(=O)O)C(=O)O; hArg = N=C(N)NCCCC[C@H](N)C(=O)O; Cit = NC(=O)NCCC[C@H](N)C(=O)O; MMAE = monomethyl auristatin E; PABC′ = p-aminobenzylcarbamate; βAla = NCCC(=O)O; Sar = CNCC(=O)O
# T1: Human Nectin-4 (residues Gly32-Ser349) with C-terminal FLAG tag, biotinylated (human, UniProt Q96NY8 32-349, randomly biotinylated with EZ-Link Sulfo-NHS-LC-LC-Biotin)
# T1 construct: range 32-349; Captured through biotin on a streptavidin CM5 chip in the SPR assay; also called PVRL4; not shown: C-terminal FLAG tag
# T1 sequence (looked up): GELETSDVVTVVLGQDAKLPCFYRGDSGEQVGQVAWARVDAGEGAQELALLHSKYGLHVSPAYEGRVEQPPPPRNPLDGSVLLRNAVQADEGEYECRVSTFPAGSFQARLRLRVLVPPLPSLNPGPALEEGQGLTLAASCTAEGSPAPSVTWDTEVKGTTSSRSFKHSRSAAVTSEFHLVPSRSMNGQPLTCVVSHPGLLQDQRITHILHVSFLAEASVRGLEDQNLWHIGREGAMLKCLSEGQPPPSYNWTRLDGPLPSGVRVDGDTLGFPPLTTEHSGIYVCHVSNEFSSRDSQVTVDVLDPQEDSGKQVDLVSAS
# T2: human Nectin-4 (human, UniProt Q96NY8 32-349)
# T2 construct: a Gly32-Ser349 FLAG construct is described only under the SPR assay; also called PVRL4
# T2 sequence (looked up): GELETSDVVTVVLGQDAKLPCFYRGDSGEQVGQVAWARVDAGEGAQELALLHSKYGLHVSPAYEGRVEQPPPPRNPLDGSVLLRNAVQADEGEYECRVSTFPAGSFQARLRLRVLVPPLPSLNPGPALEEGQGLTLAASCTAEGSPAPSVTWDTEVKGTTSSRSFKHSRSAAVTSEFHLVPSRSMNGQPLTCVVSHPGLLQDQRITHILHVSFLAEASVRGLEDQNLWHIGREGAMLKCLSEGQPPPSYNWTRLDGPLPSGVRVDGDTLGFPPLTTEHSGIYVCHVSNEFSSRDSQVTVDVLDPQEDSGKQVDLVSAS
# B1: BCY8255 (peptide)
# peptide: {MMAE-PABC′-Cit-Val-Glutaryl-βAla}-[Sar][Sar][Sar][Sar][Sar][Sar][Sar][Sar][Sar][Sar]CP[1Nal][dR]CM[hArg]DWSTP[Hyp]WC
# modifications: linker 11-15-25 via TATA
# notes: also called MMAE-PABC-Cit-Val-Glutaryl-BCY8235
# B2: BCY8783 (peptide)
# peptide: {MMAE-PABC′-Cit-Val-Glutaryl-βAla}-[Sar][Sar][Sar][Sar][Sar][Sar][Sar][Sar][Sar][Sar]CP[1Nal][dCya]CM[hArg]DWSTP[Hyp]WC
# modifications: linker 11-15-25 via TATA
# notes: also called MMAE-PABC-Cit-Val-Glutaryl-BCY8269
# Key:
# [1] = biological target: Nectin-4 on the surface of tumour cell lines (UniProt Q96NY8); assay: flow cytometry, PE isotype control on NCI-H322 cells
# [2] = biological target: Nectin-4 on the surface of tumour cell lines (UniProt Q96NY8); assay: flow cytometry, PE isotype control on HT-29 cells
# [3] = biological target: Nectin-4 on the surface of tumour cell lines (UniProt Q96NY8); assay: flow cytometry, PE isotype control on T-47D cells
# [4] = biological target: Nectin-4 on the surface of tumour cell lines (UniProt Q96NY8); assay: flow cytometry, PE isotype control on HCT-116 cells
# [5] = biological target: Nectin-4 on the surface of tumour cell lines (UniProt Q96NY8); assay: flow cytometry, PE isotype control on MDA-MB-468 cells
# [6] = biological target: Nectin-4 on the surface of tumour cell lines (UniProt Q96NY8); assay: flow cytometry, PE isotype control on NCI-H292 cells
# [7] = biological target: Nectin-4 on the surface of tumour cell lines (UniProt Q96NY8); assay: flow cytometry, PE isotype control on Panc02.13 cells
# [8] = biological target: Nectin-4 on the surface of tumour cell lines (UniProt Q96NY8); assay: flow cytometry, PE isotype control on HT1080 cells
# [9] = biological target: Nectin-4 on the surface of tumour cell lines (UniProt Q96NY8); assay: flow cytometry, PE isotype control on NCI-526 cells
# [10] = biological target: Nectin-4 on the surface of tumour cell lines (UniProt Q96NY8); assay: flow cytometry, PE isotype control on NCI-H526 cells
# [11] = biological target: Nectin-4 on the surface of tumour cell lines (UniProt Q96NY8); assay: flow cytometry, PE isotype control on MDA-MB-468 cells; remark: listed apart in the source
# [12] = biological target: Nectin-4 on the surface of tumour cell lines (UniProt Q96NY8); assay: flow cytometry, PE isotype control on A549 cells
# [13] = biological target: Nectin-4 on the surface of tumour cell lines (UniProt Q96NY8); assay: flow cytometry, PE isotype control on NCI-H358 cells
# [14] = biological target: Nectin-4 on the surface of tumour cell lines (UniProt Q96NY8); assay: flow cytometry, PE isotype control on HT1376 cells
# [15] = biological target: Nectin-4 on the surface of tumour cell lines (UniProt Q96NY8); assay: flow cytometry, PE isotype control on NCI-H292 cells; remark: listed apart in the source
# [16] = biological target: Nectin-4 on the surface of tumour cell lines (UniProt Q96NY8); assay: flow cytometry, PE antibody staining of NCI-H292 cells
# [17] = biological target: Nectin-4 on the surface of tumour cell lines (UniProt Q96NY8); assay: flow cytometry, PE antibody staining of A549 cells
# [18] = biological target: Nectin-4 on the surface of tumour cell lines (UniProt Q96NY8); assay: flow cytometry, PE antibody staining of HT-29 cells
# [19] = biological target: Nectin-4 on the surface of tumour cell lines (UniProt Q96NY8); assay: flow cytometry, PE antibody staining of NCI-H292 cells; remark: listed apart in the source
# [20] = biological target: Nectin-4 on the surface of tumour cell lines (UniProt Q96NY8); assay: flow cytometry, PE antibody staining of MDA-MB-468 cells
# [21] = biological target: Nectin-4 on the surface of tumour cell lines (UniProt Q96NY8); assay: flow cytometry, PE antibody staining of NCI-526 cells
# [22] = biological target: Nectin-4 on the surface of tumour cell lines (UniProt Q96NY8); assay: flow cytometry, PE antibody staining of T-47D cells
# [23] = biological target: Nectin-4 on the surface of tumour cell lines (UniProt Q96NY8); assay: flow cytometry, PE antibody staining of NCI-H526 cells
# [24] = biological target: Nectin-4 on the surface of tumour cell lines (UniProt Q96NY8); assay: flow cytometry, PE antibody staining of HT1376 cells
# [25] = biological target: Nectin-4 on the surface of tumour cell lines (UniProt Q96NY8); assay: flow cytometry, PE antibody staining of NCI-H322 cells
# [26] = biological target: Nectin-4 on the surface of tumour cell lines (UniProt Q96NY8); assay: flow cytometry, PE antibody staining of HT1080 cells
# [27] = biological target: Nectin-4 on the surface of tumour cell lines (UniProt Q96NY8); assay: flow cytometry, PE antibody staining of MDA-MB-468 cells; remark: listed apart in the source
# [28] = biological target: Nectin-4 on the surface of tumour cell lines (UniProt Q96NY8); assay: flow cytometry, PE antibody staining of NCI-H358 cells
# [29] = biological target: Nectin-4 on the surface of tumour cell lines (UniProt Q96NY8); assay: flow cytometry, PE antibody staining of Panc02.13 cells
# [30] = biological target: Nectin-4 on the surface of tumour cell lines (UniProt Q96NY8); assay: flow cytometry, PE antibody staining of HCT-116 cells
# [31] = biological target: T1, Human Nectin-4 (residues Gly32-Ser349) …; assay: SPR (Biacore), biotinylated human Nectin-4 on streptavidin chip
# human Nectin-4 = biological target: T2, human Nectin-4; assay: FP direct binding
# Description: Affinity of the peptides of the invention for human Nectin-4 (Ki) was determined using a fluorescence polarisation assay, in accordance with the methods disclosed in WO 2016/067035. […] Measurements were conducted on a BMG PHERAstar FS equipped with an “FP 485 520 520” optic module which excites at 485 nm and detects parallel and perpendicular emission at 520 nm. The PHERAstar FS was set at 25° C. with 200 flashes per well and a positioning delay of 0.1 second, with each well measured at 5 to 10 minute intervals for 60 minutes. […] Data was analysed using Systat Sigmaplot version 12.0. mP values were fit to a user defined quadratic equation to generate a Kd value: f=ymin+(ymax−ymin)/Lig*((x+Lig+Kd)/2-sqrt((((x+Lig+Kd)/2)\hat{ }2)-(Lig*x))).
# [32] = biological target: Human Nectin-4 (residues Gly32-Ser349) with C-terminal FLAG tag, biotinylated (human) (UniProt Q96NY8); assay: SPR (Biacore), biotinylated human Nectin-4 on streptavidin chip
molecule,measurement,setting,value
"PE isotype control IgG2b (R&D, catalog IC0041P) (antibody)",MFI-Isotype,[1],145
same,MFI-Isotype,[2],20.5
same,MFI-Isotype,[3],132
same,MFI-Isotype,[4],14.5
same,MFI-Isotype,[5],28.9
same,MFI-Isotype,[6],180
same,MFI-Isotype,[7],36.2
same,MFI-Isotype,[8],134
same,MFI-Isotype,[9],8.33
same,MFI-Isotype,[10],104
same,MFI-Isotype,[11],184
same,MFI-Isotype,[12],20.5
same,MFI-Isotype,[13],26.5
same,MFI-Isotype,[14],36.2
same,MFI-Isotype,[15],22.9
"PE anti-Nectin-4 antibody (R&D, catalog FAB2659P)",MFI-Panel,[16],149
same,Nectin-4 (percent positive cells),[16],71.1%
same,MFI-Panel,[17],21.6
same,Nectin-4 (percent positive cells),[17],1.07%
same,MFI-Panel,[18],88.3
same,Nectin-4 (percent positive cells),[18],40%
same,MFI-Panel,[19],729
same,Nectin-4 (percent positive cells),[19],97.9%
same,MFI-Panel,[20],460
same,Nectin-4 (percent positive cells),[20],97.1%
same,MFI-Panel,[21],12.1
same,Nectin-4 (percent positive cells),[21],1.22%
same,MFI-Panel,[22],1810
same,Nectin-4 (percent positive cells),[22],99%
same,MFI-Panel,[23],91.3
same,Nectin-4 (percent positive cells),[23],0.21%
same,MFI-Panel,[24],803
same,Nectin-4 (percent positive cells),[24],92.4%
same,MFI-Panel,[25],1660
same,Nectin-4 (percent positive cells),[25],99.1%
same,MFI-Panel,[26],134
same,Nectin-4 (percent positive cells),[26],1.53%
same,MFI-Panel,[27],2320
same,Nectin-4 (percent positive cells),[27],99%
same,MFI-Panel,[28],361
same,Nectin-4 (percent positive cells),[28],90.1%
same,MFI-Panel,[29],128
same,Nectin-4 (percent positive cells),[29],51.9%
same,MFI-Panel,[30],15.6
same,Nectin-4 (percent positive cells),[30],1.85%
B1,Kd,[31],8.58 nM
"ACPFGCHTDWSWPIWCA[Sar][Sar][Sar][Sar][Sar][Sar]-{K(Fl)} (linker 2-6-16 via TATA, also called fluorescent peptide; tracer) [ACPFGCHTDWSWPIWCA-Sar6-K(Fl) (SEQ ID NO: 217)]",Kd,human Nectin-4,5 nM
B2,Kd,[31],0.804 nM
{Ac-βAla}-[Sar][Sar][Sar][Sar][Sar][Sar][Sar][Sar][Sar][Sar]CP[1Nal][dD]CM[Cya][Cya]WSTP[Hyp]WC (linker 11-15-25 via TATA (inferred)) [BCY8281],Kd,[32],6.11 nM
